Measured values: the DeepSol protein solubility set

experiment: soluble on expression in E. coli; label from the status in PepcDB or PDB records

Sequence | soluble on expression in E. coli
MSPWQHYQKDLTRDGFSHDPAQEIAVKALQRVYEDLTAAEEPNSLFGKLFTSFGLTSAPAPTKGLYLWGGVGRGKTYLMDTFFDTLPGNQKLRAHFHRFMHQLHLDLDALKGTRDPLLVIAKQMAAKYRVICFDEFFVSDITDAMLLGTLFQALFKEGVVLVATSNIIPDDLYKNGLQRARFLPAIALINQHCEVLNVDSGIDYRLRTLEQAEIYHHPLDEQADTNLLRYFGQLAPEAEISTEAIEIEGRAISIRQQAQGVLLADFRALCDGPRSQRDYMELARIYHTVLVSGIEQMGAFLTGDDIARRFLAMVDEFYERNVKLIVSAQVPLEDIYADGLLSFEFRRCRSRLIEMQSHDYLKSEHLPLEHHHHHH | not soluble
MSQATARHSVTSSPVSTGQLEEPISRLRVPTEDELPQKLRDIHMRIRKKFGFVPNFLTALSANPGTALRIMAFYEHLFDQSNSHLSASERELIAVVTSVATGCSYCVFNHRPALAAALGDRVLADRIARNHNDVTLAPRERALADLAQKLAATPHSVGSDDFARLRAIGFSEPAILEVLEVSAFFSYGNRLTIALNVLPDPQFFVSAMAGDPLEHHHHHH | not soluble
MSQPPLLSGPGGRLLGAALLIGLLAGCGSVSTGNAGSGTVGTSTTSRADVMTFQPSSLPVSYVGETYNVQVGVTGGVGPYGYRLTAGTLPPGLKFAGGALSGTPTKAGSYSFAIQATDANLSTRVQEYTMNVDALPPLALKPTLPPGEIRGETRIPVTIQAPRAVRAARLSWDLGKDVQVTRVQPADAGSVVFWQQRGSVLTVDLGFRTVPRPDARIALITVKPAKAVTLKADALGYEARDGSGKMLVDKKRPGSEPVKPAEQPGDPKVDPKAADQKATDQKATDPKTVDPKTVTPADTVEGGPLPSPALPTPSLPPTLPPVTTPPANTPPVPTPTPPANQPAPAPAPQPAPAPQPTPPSGTGGALEHHHHHH | soluble
MSQRKAQNDYQKIIRSLSDRIVEAQTPIRVLDAIKWDDGIRQDFLKGRGKHAPKVDRGYYDSRPLAFDASAKKQEFQNIERDITRQLGQFNPVGQIMRRMCKEYRMVIRMLEARGTPDLGLISQELYGSASDAFHAGDPTLADLGLMLSDYLNNIADRGDLKDEPKTLTAKEVVPILQARLNTVFGEEEGTIRVFESDGIVADAAAGADYIKVRADALFNERDVRALEVHEGLVHVGTTLNGLSQPICTFLAKGPPSSTVTQEGLAILMEVIAFASYPTRLRKLTNRTRAIHMAEEGADFLDVFHFYREQGYSLEDSYQNASRVFRGSTPDGLPFTKDLSYLKGFILIYNYIQLAVRKGKLEQIPLLFCGKTTLEDMRTLRQLVDEGLVAPPKYLPPQFRDLNALSAWMCFSNFLNHLSLDRIEADYANILAAALEHHHHHH | not soluble
MSQTTTNPHVAVLAFPFSTHAAPLLAVVRRLAAAAPHAVFSFFSTSQSNASIFHDSMHTMQCNIKSYDISDGVPEGYVFAGRPQEDIELFTRAAPESFRQGMVMAVAETGRPVSCLVADAFIWFAADMAAEMGVAWLPFWTAGPNSLSTHVYIDEIREKIGVSGIQGREDELLNFIPGMSKVRFRDLQEGIVFGNLNSLFSRMLHRMGQVLPKATAVFINSFEELDDSLTNDLKSKLKTYLNIGPFNLITPPPVVPNTTGCLQWLKERKPTSVVYISFGTVTTPPPAEVVALSEALEASRVPFIWSLRDKARVHLPEGFLEKTRGYGMVVPWAPQAEVLAHEAVGAFVTHCGWNSLWESVAGGVPLICRPFFGDQRLNGRMVEDVLEIGVRIEGGVFTKSGLMSCFDQILSQEKGKKLRENLRALRETADRAVGPKGSSTENFITLVDLVSKPKDV | soluble
MSQVLTTYETPVLPEWVDYNGHLRDAFYLLVFSYATDALMAHIGLDSQNRDASGHSLFTLECHLNFLHEVKEGARVEVRTQLLGHDRKRLHIHHALYLPGSGQALALSEQMLLHVSLDGPRSAPFEGEVLARVEALAEAHRALPVPEGVGRVIGLPPVR | not soluble
MSQVMEVVGGKWRLNVLWVINKYQSIRFNQLKREVNGITTIMLTRSLDILITNELVEKVDFQTLPLHVKYQLSSKGKSLMPLLKQINQWGKLYLLEHHHHHH | not soluble
MSRCPEDSRTGNGRNGAPDPGELSAMVRKLEIRSRRLVNELFSGEYHSSFKGRGIEFSQVREYQYGDDVRTIDWNTSAHKNDLYVKIFTEERERILMLVLDGSGSMLFGSGRLKKELAAEVSAILAFSAVQNNDMVGLLVFSDTVETYIPPRKGRAHALVILNEIFSMRQCGRKTDIDAALSFLRRTQKRKSIIFLLTDLLGSEYERGMKLLNARHEFVLIHIGDPLDHELPHSGLLDLVDPETGERLTIDAGSRAFLARYAKEQRAKREAVQRQLSRMKVDAVFLDTGKSIIGGLNAFFRHRERKV | not soluble
MSRESTVREWRTRVPRYRLLGGRCSDCGRSFYPPAKACPYCGSRNVAETELPRVGRLEAYTVLYSVESGARDRSPVVIGLVDLGVAKVVSEIVDVSDPESLERGVQVEAVFRRIYEDGDEGVIVYGVKFRPKA | not soluble
MSRGPSSAVLPSALGSRKLGPRSLSCLSDLDGGVALEPRACRPPGSPGRAPPPTPAPSGCDPRLRPIILRRARSLPSSPERRQKAAGAPGAACRPGCSQKLRVRFADALGLELAQVKVFNAGDDPSVPLHVLSRLAINSDLCCSSQDLEFTLHCLVPDFPPPVEAADFGERLQRQLVCLERVTCSDLGISGTVRVCNVAFEKQVAVRYTFSGWRSTHEAVARWRGPAGPEGTEDVFTFGFPVPPFLLELGSRVHFAVRYQVAGAEYWDNNDHRDYSITCRNHALHMPRGECEESWIHFI | soluble
MSRKMTGIVKTFDCKSGKGLITPSDGRKDVQVHISACRQHETEALIPGIRVEFCRINGLRGPTAANVYLS | not soluble
MSRLGYVMTKASAKNFKVYINGSARGYRNIIINGAKSWNPSPYLNTVTMGNDVKPNFTVSSSNTNKGSVLAVCNTTYYKSNKLIVKNEITLYKGFRSLSNNHKIETVAHEFGHGFGLGHVKTRNAIMLDKGFINKTKPQKDDFNGIKALYKLEHHHHHH | soluble
MSRNMFKLAHISDVHLGPLPRLSIQELFSKRITGFVNWHRNRRKHLFASTLDLLLDDIRTHRADHLAVTGDLVNLASGIEIRAAAAWLRALGDPADTSVVPGNHDAYVPGAYEKSMRAWYDYVRGDLAPPQWQEDRRIFPYLRVRDKVAIVGCSTAVATPPFAASGFFSARQARDTVNMLRAAGEAGLFRVVMIHHPPIRGATAFHKRMIGIRRFAAVISTGGAELVLHGHTHLNTLHWLRGQVQPVPVVGIASASQGPGSIKPPAAYNLFSIDGAPGAWELEHHHHHH | soluble
MSRPQFTSLRLSLLALAVSATLPTFAFATETMTVTATGNARSSFEAPMMVSVIDTSAPENQTATSATDLLRHVPGITLDGTGRTNGQDVNMRGYDHRGVLVLVDGVRQGTDTGHLNGTFLDPALIKRVEIVRGPSALLYGSGALGGVISYDTVDAKDLLQEGQSSGFRVFGTGGTGDHSLGLGASAFGRTENLDGIVAWSSRDRGDLRQSNGETAPNDESINNMLAKGTWQIDSAQSLSGLVRYYNNDAREPKNPQTVGASESSNPMVDRSTIQRDAQLSYKLAPQGNDWLNADAKIYWSEVRINAQNTGSSGEYREQITKGARLENRSTLFADSFASHLLTYGGEYYRQEQHPGGATTGFPQAKIDFSSGWLQDEITLRDLPITLLGGTRYDSYRGSSDGYKDVDADKWSSRAGMTINPTNWLMLFGSYAQAFRAPTMGEMYNDSKHFSIGRFYTNYWVPNPNLRPETNETQEYGFGLRFDDLMLSNDALEFKASYFDTKAKDYISTTVDFAAATTMSYNVPNAKIWGWDVMTKYTTDLFSLDVAYNRTRGKDTDTGEYISSINPDTVTSTLNIPIAHSGFSVGWVGTFADRSTHISSSYSKQPGYGVNDFYVSYQGQQALKGMTTTLVLGNAFDKEYWSPQGIPQDGRNGKIFVSYQW | not soluble
MSRRAPMFKPLPITLQRGALRLEPLVEADIPELVSLAEANREALQYMDGPTRPDWYRQSLAEQREGRALPLAVRLGVQLVGTTRFAEFLPALPACEIGWTWLDQAQHGSGLNRMIKYLMLKHAFDNLRMVRVQLSTAASNLRAQGAIDKLGAQREGVLRNHRRLAGGRLDDTFVYSITDHEWPQVKAALEASFTG | soluble
MSRRHSVVDAYSTVEGKIRDTMRELSALWDEVDMSEAMRLKRVDNAFTHITLLCDDMLSGEKEMIHNLKVSIREDMQNVKKMRLELEMEDFQRPAEIKDGSIALMRHLQSEVKSLETEFQTRHEDQRVLIEKICNLKKRLESDFEFEYEIHAKLNFDTDLPPCMSPATSEMISFITPTRRQAVGPKTSSPKDTQPSTSSSSRTTTPMSKRAMTPSSIASSTPSSAKKVLTRRNQFL | not soluble
MSRRSQWKQVANGMLGDVSKARSVEERENVPEKACGFCKNFSENAYASDGRGYCKKLKVGSDIKVNPPVYVMEGQASLTVLFNSDGAGCEYFNRQDLIDTDGNEVNDPSYRRVQRQMEKAIK | not soluble
MSRRVATITLNPAYDLVGFCPEIERGEVNLVKTTGLHAAGKGINVAKVLKDLGIDVTVGGFLGKDNQDGFQQLFSELGIANRFQVVQGRTRINVKLTEKDGEVTDFNFSGFDVTPADWERFVNDSLSWLGQFDMVCVSGSLPAGVSPEAFTDWMTRLRSQCPCIIFDSSREALVAGLKAAPWLVKPNRRELEIWAGRKLPEMKDVIDAAHALREQGIAHVVISLGAEGALWVNASGEWIAKPPAVDVVSTVGAGDSMVGGLIYGLLMRESSEHTLRLATAVAALAVSQSNVGITDRPQLAAMMARVDLQPFN | not soluble
MSRRYDTIKHLGEGQFANVYLAQDLESGECVAIKKIKLGSREEAKDGINRTAIREIKLLKEIHHDNIIGLRDVIGHRTSIQLVFDFMDTDLEHVIKDKEIILMPAHIKNITMQMLLGLEFLHVHWILHRDLKPNNLLMNKMGRVKLTDFGLARFFGSPNRNYTHQVVTRWYRAPELLFGARSYGVGIDIWSVGCIIAELLLRNPIFPGESDIDQLVKIFNILGCPTPETWPNMTEMNSYVIIKPQTEYMALNYYFSAAPQDLLDLMAGMWTFDPIKRLTCTQSLQMEYFRTQPFCCLDEELPLPKKQQPQKRSRRLDDDGTRPVRRLNFD | not soluble
MSRSKKTRRISDIMPARKADKKPALPISNSKKRKPTRYELDVQAREEKKKRKHKGLPTGSRNVITEQKTASAKVKKDPRVGSRKKVPLMVEFVNKPEKGQMIKPVPLEPSNHATKATVSPEVELTQLENNECLNQLLDQLEAGKVLSTQDQQFVDECLDRVHELIIELGIEDDEENNEDLLLRQFETIDINKFK | not soluble
MSRSLLTNETSELDLLDQRPFEQTDFDILKSYEAVVDGLAMLIGSHCEIVLHSLQDLKCSAIRIANGEHTGRKIGSPITDLALRMLHDMTGADSSVSKCYFTRAKSGVLMKSLTIAIRNREQRVIGLLCINMNLDVPFSQIMNTFIPPETPEVGSAVNFASSVEDLVTQTLEFTIEEVNADRNVSNNAKNRQIVLNLYEKGIFDIKDAINQVADRLNISKHTVYLYIRQFKSGDFQGQDK | not soluble
